Source: the nanobody polyreactivity screen of Harvey et al. (2022)

Assay: yeast display, Sf9 membrane polyspecificity reagent, FACS + sequencing; frameworks hold sequencing errors
In short: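 After 36–48 hours of galactose induction, yeast (Saccharomyces cerevisiae BJ5465) displaying a synthetic nanobody library were stained at 4 °C for 1 hour with 10% biotinylated, detergent-solubilized Sf9 membrane reagent. Streptavidin microbeads enriched the stained cells before FACS sorting into low and high (top ~1%) gates on anti-HA and streptavidin fluorescence. Each clone's polyreactivity label reflects its gate of origin.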

| Sequence | polyreactivity (PSR sort gate) |
| --- | --- |
| QVQLVESGGGLVQAGGSLRLSCAASGFTFGYNAMGWYRQAPGKEREFVAAITKSGDSTYYADSVKGRFTISRDNAKNSVYLQMNSLKPEDTAVYYCAAQYRQRRHDYWGQGTQVTVSS | high polyreactivity |
| QVQLVESAGGLVQAGGSLRLSCAASGRTFGKYAMGWYRQAPGKERELVAAITGGGGTKYADSVKGRFTISRDNAKNTVYLQKNSLKPEDTAVYYCAAASGSRRHGYWGQGTQVTVSS | high polyreactivity |
| QVQLVESGGGLVQAGGSLRLSCAASGSTFAANAMGWSRPAPGKERELVAAITSSGGSTYYADSVKGRFTISRDYAKNTVYLQMNSLKPEDTAVYYCNKDIERYVRIYDSWGQGTQVTVSS | low polyreactivity |
| QVQLVESGGGLVQAGGSLRLSFAASGITFDHYAMGWYRQAPGKEREFVAAIDDIGGDTYYADSVKGRFTISRDNAKNTVYLQMNSLKPEDTAVYYCAADYGYYSRFYYWGQGTQVTVSS | low polyreactivity |
| QVQLVESGGGLVQAGGSLRLSCAASGIIFPYYTMGWYRQAPGKERELVARITNGGRTYYADSVNGRFTISRDNAKNTVYLQMNSLKPEDTAVYYCNAGRYYIGGYWGQGTQVTVSS | high polyreactivity |
| QVQLVESGGGLVQAGGRLLLSSAASGSTFIWNGMGWYRQAPGKERELVAAITSSSTYYADSVKGRFTISRDNAKNTVYLQMNSLKPEDTAVYYCAATFIQVVVNVQLYDYDYWGQGTQVTVSS | low polyreactivity |
| QVQLVESGGGLVQAGGSLRLSCAASGRIFLRNDMVWYRQAPGKERELVAGISSDGSTYYADSVKGRFTISRDNAKNTVYLQMNSVKREDTAVYDCAAERWGKPTVFQFWRPYDYWGLGTQVTVSS | low polyreactivity |
| QVQLVESGGGLVQAGGSLRLSCAASGRILVHNAMGWYRQAPGKERELVAAITWSGGSTYYADSVKGRFTISRDNAKNTFYLQMNSLKPEDTAVYYCAAEQWRYDGSFTGYGYWGQGTQVTVSS | low polyreactivity |
| QVQLVESGGGLVQAGGSLRLSCAATGRIYVTNAMGWYRQAPGKERELVAAITESGGSTYYADTVKGRFTISRDNAKNTVYLQMNSLKPEDTAVYYCAADYLNGEEDYWGQGTQVTVSS | low polyreactivity |
| QVQLVESGGGLVQAGGSLRLSCAASGSTFFRYAMGWYRQAPGKEREFVAAITWSGTGTYYADSVKGRFTISRDNAKNTVYLQMNSLKPEDTAVYYCNADPFDLWAFYYGYVYGYYHWGQGTQVTVSS | high polyreactivity |
| QVQLVESGGGLVQAGGSLRLSCAASGSTLGPNVMGWYRQAPGKERELVAAISWRGGSTYYADSVKGRFTISRDNAKNTVYLQMNSLKPEDTAVNYGAARTTTYPYGYWGQGTQVTVSS | high polyreactivity |
| QVQLVESGGGLVQAGGSLRLSCAASGRIFSDYAMGWYRQAPGKERELVAAISRSGTRTYYADSVKGRFTISRDNAKNTVYLQMNSLKPEDTAVYYCAAKTPYGRAGQEEDYWGQGTQVTVSS | high polyreactivity |
| QVHLVESVGGLDQAGGSLRLSCAASGFIFVRYAMGWYRQAHGKEREFVAVISRRGGSTHYADSVKARFTISRDNAKNTVYLQMNSLKPEDTAVYYCNVRQGGPTVTWEYDYWGQGTQGTVSS | high polyreactivity |
| QDQLVESGGGLVQAGGSLRLSCAASGIIFYGYGMGWYRPAPGKERELVAAISRSGGSTYYADSVKGRFTISRDNAKNTVYLQMNSLKPEDTAVYSCAASGVTYDYWGQGTQVTVSS | high polyreactivity |
| QVQLVESGGGLVQAGGSLRLSCAASGSTFYRYAMGWYRQAPGKERELVAAISSGGRTYYADSVKGRFTISRDNAKNTVYLQMNSLKPEDTAVYYCAADDSEGFDYWGQGTQVTVSS | high polyreactivity |
| QVQLVESGGGLVQAGGSLRLSCAASVYIFWINAMGWYRQAPGKDRELVAAIRYSTGRTYYADSVKGRFTISRDNAKNTVYLQMNSLKPEDTAVYYCNARSWYIRGSQEYYYWGQGTQVTVSS | high polyreactivity |

| Sequence | polyreactivity (PSR sort gate) |
| --- | --- |
| QVQLVESGGGLVQAGGSLRLICAASGSTITLYAMGWYRQAPGKERELVAAISGIGDSTYYADSVKGRFTISRDNAKNTVYLQMNSLKPEDTAVYYCAADGEYRYDWEYESWGQGTQLTVSS | low polyreactivity |
| QVQLVESGGGLVQAGGSLRLSCAASGFTFYWYTMGWYRPAPGKERELVATISGSGGRTYYADSVKGRFTISRDNAKNTVYLQMNSLKPEDSAVYYCNAGRPYKYGYWGQGTQVTVSS | high polyreactivity |
| QVQLVESGGGLVHAGGSLRLSCAASGFIFSSYAMGWYRPAPGKERELVAAITSRGGSTYYADSVKGRYTISRDNAKNTVYLQMNSLKPEDTAVYYCAADQGVPSTYDYWGQGTQVTVSS | low polyreactivity |
| QVQLVESGGGLVQAGGSLRLSCAASGSTFDVNAMGWYRQAPGKERELVAVITSGGSTNYADSVKGRFTISRDNAKNTVYLQMNSLKPEDTAVYYCAKDSRTLYDYWGQGTQVTVSS | low polyreactivity |
| QVQLVDSGGGLVQAGGSLRLSCAASGSTFTTNGMGGYRQAPGKERELVAAITRGGSTNYADSVKGRFTISRDNAKNTVFLQMNSLKPEDTAVYYCAAQNYWYYPRRFDYWGQGTQVTVSS | high polyreactivity |
| QVQLVESGGGLVQAGGSLRLSCAASGFTFLKYAMGWYRQAPGKERELVAAISWSGDSTYYADSVKGRFTISRDNAKNTVYLQMNSLKPEDTAVYYCAATYSFYGYYYWGQGTQVTVSS | high polyreactivity |
| QVQLVESGGGLVQAGGSLRLSCAASGSIFDYNAMGWYRQAPGKERELVAAISVNGGNTYYADSVKGRFTISRDNAKNTVYLQMNSLKPEDTAVYYCAADSYGGSKYDYWGQGTQVTVSS | low polyreactivity |
| QVQLVESGGGLVQSGGSLRLSCAASGITLYWYAMGWYRQAPGKERELVAAITFNGGSTYADSVKGRFTISRDNAKNTVYLQMNSLKPEDTAVYYFASGDGPSLFDYWGQGTQVTVSS | low polyreactivity |
| QVQLVESGGGLVQAGGSLRLSCAASGGTFRGYAMGWYRQAPGKERELVAAITYSGGRTYYADSVKGRFTISRDNAKNTVYLQMNSLKPEDTAVYYCNAQSSGRLSYRYDYWGQGTQVTVSS | high polyreactivity |
| QVQLVESGGGLVQAGGSLRLSCAASGRIFFAYAMGWYRQAPGKEREFVAAISDNDGSTYYADSVKGRFTISRDNAKNTVYLQMNSLKPEDTAVYYCNADLGYVYDYWGQGTQVTVSS | low polyreactivity |
| QVQLVESGGGLVQAGGSLRLSCAASGSTSSLYTMGWYRQAPGKERELVAAITRSGGGTYYADSVKGRFTSSRDNAKNTVYLQMNSLKPEDTAVYYCAAVQSEGRMGYWGQGTQVTVSS | high polyreactivity |
| QVQLVESGGGLVQAGGSLRLSCAASGSTFITYGMGWYRQAPGKERELVARITLSGGSTYYADSVKGRFTISRDNAKNTVYLQINSLKPEDTAVYYCATDFGWQYYVLDGYYWGQGTQVTVSS | low polyreactivity |
| QVQLVESGGGLVQAGGSLRLSCAASGGIYDSYAMGWYRQAPGKEGEMVASISWSGGSTYYADSVKGRFTISRDNAKNTVYLQMNSLKPEDTAVYYCAADRAYAGRYWKGYHSALYDYWGEGTQVTVSS | low polyreactivity |
| QVQLVESGGGLVQAGGSLRLSCAASGIIFKYYAMGWYRQAPGKERELVAAITGNGGSTYYADSVKGRFTISRDNAKNTVYLQMNSLKPEDTAVYYCATRWFAVHMYWGQGTQVTVSS | high polyreactivity |
| QVQLVDSGGGLVQAGGSLRLSCAASGRIFKWTAMGWYRPAPGKERELVAAIRWSSGRTYYADSVKGRFTISRDNAKNTVYLQMNSLKPEDTAVSYCAANNGYGMDYWGQGTQVTVSS | high polyreactivity |
| QVQLVESGGGLVQAGGSLRLSCAASGRIFTYYAMGWYRQAPGKERELVATITRRGGRTYYADSVKGRFTISRDNAKNTVYLQMNSLKPEDTAVYYCAVVPETRYYYWGQGTLVTVSS | high polyreactivity |
